Here are results for two molecules from PMC12775124, “CUL4A-DDB1-DCAF10 is an N-recognin for N-terminally acetylated Src kinases” (Nature Communications, 2026).

The assay has as its system DLD-1 Flp-In T-REx and Lyn KO cells. Put plainly: Level of Lyn / Lyn-GFP variants after NMT1/2 and DCAF10 siRNA, Western blot. The class given is cell-based, human. The settings on record: DLD-1, 72 h siRNA. The text has this:
To further investigate the role of the Nt-amino acid and its modification in DCAF10 recognition and DCAF10-dependent ubiquitination, we used the CRISPR/Cas9 technique to knock out Lyn in DLD-1 cell lines with T-REx Flp-In background (DLD-1 Lyn KO Flp-In T-REx) (Supplementary Fig. 7a–c). We then integrated Lyn^WT-GFP and two Nt-mutants (Lyn^G2A-GFP and Lyn^G2P-GFP) under a doxycycline-inducible promoter into the Flp-In cassette. Alanine (G2A) is expected to be efficiently acetylated by NatA, generating an Nt-acetylated Lyn mutant. Conversely, the proline (G2P) mutant, is expected not to be acetylated and may retain a free N-terminus[3],[36],[37]. Doxycycline-induced expression of Lyn^WT-GFP, Lyn^G2A-GFP, and Lyn^G2P-GFP was confirmed by Western blot, MS, and fluorescence microscopy (Supplementary Figs. 7d, e; 8a and Supplementary Data 6). […]
Fig. 6 N-terminal glycine mutation abolishes DCAF10-dependent stability and ubiquitination. a DLD-1 Flp-In T-REx cells and Lyn KO cells expressing Lyn^WT-GFP, Lyn^G2A-GFP, or Lyn^G2P-GFP were induced for 24 h with 100 ng/mL doxycycline. […] Filled circles represent siRNA treatment, empty circles untreated. b WB quantifications of Lyn levels normalized to vinculin. […] Lysates have been treated with NMT1/2 RNAi for 72 h. i Quantification of in vitro ubiquitination assays. […]

Changes are numbered by the printed parent chain. In names and notes the source's numbering stands. Entries after “also recorded” stand apart in the source; their conditions may differ.

B1: Lyn^G2A-GFP: Nt-mutant (G2A) Lyn-GFP (protein, UniProt P07948 2-512, looked up, variant G2A)
Tyrosine-protein kinase Lyn: ACIKSKGKDSLSDDGVDLKTQPVRNTERTIYVRDPTSNKQQRPVPESQLLPGQRFQTKDPEEQGDIVVALYPYDGIHPDDLSFKKGEKMKVLEEHGEWWKAKSLLTKKEGFIPSNYVAKLNTLETEEWFFKDITRKDAERQLLAPGNSAGAFLIRESETLKGSFSLSVRDFDPVHGDVIKHYKIRSLDNGGYYISPRITFPCISDMIKHYQKQADGLCRRLEKACISPKPQKPWDKDAWEIPRESIKLVKRLGAGQFGEVWMGYYNNSTKVAVKTLKPGTMSVQAFLEEANLMKTLQHDKLVRLYAVVTREEPIYIITEYMAKGSLLDFLKSDEGGKVLLPKLIDFSAQIAEGMAYIERKNYIHRDLRAANVLVSESLMCKIADFGLARVIEDNEYTAREGAKFPIKWTAPEAINFGCFTIKSDVWSFGILLYEIVTYGKIPYPGRTNADVMTALSQGYRMPRVENCPDELYDIMKMCWKEKAEERPTFDYLQSVLDDFYTATEGQYQQQP
modifications: GFP fusion
For B1, the “Dependency on NMT1/2 and DCAF10 (in words)” value is recorded as “did not show such dependency; also recorded: slight increase after DCAF10 depletion, independently of NMT1/2”.

B2: Lyn^G2P-GFP: Nt-mutant (G2P) Lyn-GFP (protein, UniProt P07948 2-512, looked up, variant G2P)
Tyrosine-protein kinase Lyn: B1 Tyrosine-protein kinase Lyn with A1P
modifications: C-terminal GFP fusion
Turning to B2, the “Dependency on NMT1/2 and DCAF10 (in words)” value is “did not show such dependency”.
